Measurements reported in the DeepSol protein solubility set.

Assay: soluble on expression in E. coli; label from the status in PepcDB or PDB records

Sequence | soluble on expression in E. coli
MVQKEGVLRVITRNSPATYFQDRNGETGFEYELAKRFAERLGVELKIETADNLDDLYAQLSREGGPALAAAGLTPGREDDASVRYSHTYLDVTPQIIYRNGQQRPTRPEDLVGKRIMVLKGSSHAEQLAELKKQYPELKYEESDAVEVVDLLRMVDVGDIDLTLVDSNELAMNQVYFPNVRVAFDFGEARGLAWALPGGDDDSLMNEVNAFLDQAKKEGLLQRLKDRYYGHVDVLGYVGAYTFAQHLQQRLPRYESHFKQSGKQLDTDWRLLAAIGYQESLWQPGATSKTGVRGLMMLTNRTAQAMGVSNRLDPKQSIQGGSKYFVQIRSELPESIKEPDRSWFALAAYNIGGAHLEDARKMAEKEGLNPNKWLDVKKMLPRLAQKQWYAKTRYGYARGGETVHFVQNVRRYYDILTWVTQPLEHHHHHH | soluble
MSGRKIAAATVQNRTQTPFWNWLKQKLLASDRLPITPPPGIAGPDGKAVYQNPLRFPNTQSARPCSAELPALPGGVHHKLADNYYLTRDGRRNVDAPKVLYSSGEFVGGEKAQPAQVNQGVATNFGLTAPTPGFGAEWSRSKQNELASQQKNTEFEYLQRFDKFTKSA | not soluble
MGSDKIHHHHHHMLNFSLTPNAKILSKDADSYPYMYRNYPFLRPWVDSLKQVNALKDTFIINPQGIQLHAFYITAPAPTSKTAVIVHGYTDNAIRMFMIGYLYNRDLGYNILLPDLQHQGESEGRAIQMGWKDRIDVLQWMNIANEIFGDSTQMVVHGISMGGATTMMVSGEKQQPYVKCFVEDCGYTSVWDEFSHELKSSFHLPAFPLMYTTSWLCEKKYGWNFKEASSLKQVEKCELPMLFIHGDKDTYVPTWMVYPLYEAKPEPKELWIVPGAAHALSYKENKQEYTDKVRDFVGRYIH | not soluble
MSPPDLEDEPFMENQDVAGENDLFVLDGRQDPPNLPQNHLEEVVGEIVENLERWHFAEILADGAEIHEDIIEDVGGDEVEEEEVDIDWVSPLSKEYSKPFSKS | not soluble
MGSDKIHHHHHHMTNIAILGTASDVGKSIVATALCRIFSNAGVDVAPYKAQNMSNNSGVTPDGFEMGRAQIVQAQAARVAPHADMNPVLLKPNTDTGAQVVLQGKVCADKSAREYFGDTQRWAEAAFESLDRLMVRHELLVIEGAGSCAEMNLYQRDFVNFKTARRAGAAVILVADIDRGGVFAQVVGTLAVIPPEDRALVKGVIINRFRGDKSLFEGGVKMLESMTGVPVLGVIPYFRGFTIDAEDAVPLSSVVDPKQEPSGDKIGVAAIYFPHISNFTDLAPLERDPSVELHYLHRPKSLDGYKALILPGSKNVRGDLAWLETMGWRDEIEKFRKRGGIIVGLCGGYQMLGASIADPYGVEGAPGASAGLAMLPVETVLEREKALCNSVGKIAGTPFFVSGYEIHMGRTALEPGASPLLEVTERNGVATDDFDGAKSADGQVTGTYFHGFFDRPEVRTWFLRLLDGGYESPRGASVADPFELLAKHFSENLDLEKLFAIAGLSVKGEKES | not soluble
MGSDKIHHHHHHMSQIISVHSFRGGTGKSNMTANLATTLALQGKRIAIIDTDIQSPGIHVIFGLNEQKMNNCLNDYLWGKCAIEDAAYDVTHLLKGEGGSGKLYLIPSSINPGQITRILREGYDVARLNDGFYEIINALDLDYLLIDTHPGLNEETLLSIAISDILVVILRPDQQDFQGTAVTLEVARKLEVPKMMLVVNKVLSTFDFNALQQEVESTYKTPVAGIVPLSEDIIRLASSNIFCLLYTSHPFSQVVQKITAQIIREQAKVAVRGAF | not soluble
MIYKACIRKRCGGVCVGEELKPEKIQEIRLGDCPICGGKGTLKAIQFIHRIPYFGEVMESTVVCERCGYRNSDVIILEEREPRLYEVKVEEEKDLFIRVVRSKSGTIELEELGIKIEPGPAAEGFVSNIEGVLERAKEVLLMARDFKEQENDREAVRRIDELLKYIEEVKEGKKPLTVRIMDPFGNSALIGEKVKSRKLTKEEIRKLSKGPYIVIEPDEVPQQLEHHHHHH | not soluble
MSILMPVRNEERFLPAALASLCRQSLTAWELIVVDDGSTDDTPELLRVAAARDRRVRVFNNAGAGLVDALNYGLAHCRAELVARMDGDDISHPQRLERQAAALDADPGLGLVATRFRHFPRHSVGLGMRAYEEWQNGLLTHEEIMRDRFVESPVVHPSVMARRQALTDAGGYRKTGWAEDYDLWLRLAAGGVRFTRLPEVLFFWRERPERATRTMGEYAADAFRACKIHHLCQGFLLGVDNVTLAGAGLEGRAWQRALAREGVRVGRWLDVDPRKQGRILHGAPVTAPDDVRAGAEKILVTVGTRGARDGVRAWARRAGLREGEDFVCVTLEHHHHHH | not soluble
